As a reminder, the Kd is a measure of binding affinity in units of concentration.

Assay [1] deals with FcRn (Sino Biological Inc, CT009-H08H) (UniProt P55899). The experiment in a line: SPR (Biacore X100), FcRn-His captured on anti-His IgG chip, antibody as analyte, steady-state affinity fit; mean of the two runs. Background: SPR reads the build-up and loss of mass on a sensor chip optically.
For assay [2] the target is unchanged. In words: SPR (Biacore X100), FcRn-His captured on anti-His IgG chip, antibody as analyte, steady-state affinity fit; second run.
Assay [3] has the same target. In words: SPR (Biacore X100), FcRn-His captured on anti-His IgG chip, antibody as analyte, steady-state affinity fit; first run.

Sequence of UniProt P55899 (P55899 24-297 limits assumed, chain 1 of 2): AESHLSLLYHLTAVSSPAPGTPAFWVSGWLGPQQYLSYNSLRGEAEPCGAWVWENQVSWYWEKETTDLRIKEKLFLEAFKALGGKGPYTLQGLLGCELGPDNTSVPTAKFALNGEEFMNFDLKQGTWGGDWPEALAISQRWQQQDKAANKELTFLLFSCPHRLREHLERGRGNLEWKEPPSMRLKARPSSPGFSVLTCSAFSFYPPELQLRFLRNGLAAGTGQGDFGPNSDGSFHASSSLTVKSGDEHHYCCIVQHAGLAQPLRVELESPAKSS
Sequence of UniProt P55899 (P61769 21-119 limits assumed, chain 2 of 2, further chain): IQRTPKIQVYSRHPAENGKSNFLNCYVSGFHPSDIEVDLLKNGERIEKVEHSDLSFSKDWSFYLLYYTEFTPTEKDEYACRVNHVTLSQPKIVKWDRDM

Consider “MIL41: a PERJETA sample as prepared by the inventors, which is in consistence with the amino acid sequence of PERJETA (antibody)”, for which the figures for the dissociation constant (Kd) in assay [1], in assay [2] and in assay [3] were 492 nM, 450 nM and 534 nM, respectively.

Values taken from patent US20180022820A1.
